Common to all, as to assay: HPLC of oxidised product, Sf9 microsomes
Holding throughout (type): biochemical, Homo sapiens
Common to all, as to details: apparent Km, NAD+-dependent oxidation, 90 mM potassium phosphate pH 7.3, 40 mM KCl, 37 °C

Substrate in data set [1]: CCCCC[C@H](O)/C=C/C=C\CCCCCCCC(=O)O
From the text:
(§1) HPLC of oxidised product, Sf9 microsomes on human DHRS9 (SDR9C4)

Substrate in data set [2]: CCCCC[C@H](O)/C=C/C=C\C=C\C=C\[C@@H](O)[C@@H](O)CCCC(=O)O
Excerpt: as §1

Substrate in data set [3]: CC/C=C\C[C@H](O)/C=C/C=C\C=C\C=C\[C@@H](O)[C@@H](O)C/C=C\CCC(=O)O
Excerpt: as §1

Substrate in data set [4]: CCCCC/C=C\C[C@@H](O)/C=C/C=C/C=C\[C@@H](O)CCCC(=O)O
Excerpt: as §1

Substrate in data set [5]: CCCCC[C@H](O)/C=C/C=C\C/C=C\C/C=C\CCCC(=O)O
Excerpt: as §1

Substrate in data set [6]: CCCCC/C=C\C[C@H](O)/C=C/C=C\C/C=C\CCCC(=O)O
Excerpt: as §1

Substrate in data set [7]: CCCCC/C=C\C=C\[C@@H](O)CCCCCCCC(=O)O
Excerpt: as §1

Substrate in data set [8]: CCCCC[C@H](O)/C=C/C=C\CCCCCCCC(=O)O
The source says: (§2) HPLC of oxidised product, Sf9 microsomes on human RDH16 (SDR9C8)
The source holds these as a separate data set.

Substrate in data set [9]: CCCCC[C@H](O)/C=C/C=C\C/C=C\C/C=C\CCCC(=O)O
Excerpt: as §2
This is another data set of the same source.

Substrate in data set [10]: CCCCC/C=C\C[C@H](O)/C=C/C=C\C/C=C\CCCC(=O)O
Excerpt: as §2
The source holds these as a separate data set.

Substrate in data set [11]: CCCCC/C=C\C=C\[C@@H](O)CCCCCCCC(=O)O
Excerpt: as §2
This is another data set of the same source.

Substrate in data set [12]: CCCCC[C@H](O)/C=C/C=C\CCCCCCCC(=O)O
The source says: (§3) HPLC of oxidised product, Sf9 microsomes on human HSD17B6 (SDR9C6)
The source holds these as a separate data set.

Substrate in data set [13]: CCCCC[C@H](O)/C=C/C=C\C/C=C\C/C=C\CCCC(=O)O
Excerpt: as §3
This is another data set of the same source.

Substrate in data set [14]: CCCCC/C=C\C[C@H](O)/C=C/C=C\C/C=C\CCCC(=O)O
Excerpt: as §3
The source holds these as a separate data set.

Substrate in data set [15]: CCCCC/C=C\C=C\[C@@H](O)CCCCCCCC(=O)O
Excerpt: as §3
The source holds these as a separate data set.

B1: human DHRS9 (SDR9C4) (Homo sapiens) (protein)
chain: RKGKLKIEDITDKYIFITGCDSGFGNLAARTFDKKGFHVIAACLTESGSTALKAETSERLRTVLLDVTDPENVKRTAQWVKNQVGEKGLWGLINNAGVPGVLAPTDWLTLEDYREPIEVNLFGLISVTLNMLPLVKKAQGRVINVSSVGGRLAIVGGGYTPSKYAVEGFNDSLRRDMKAFGVHVSCIEPGLFKTNLADPVKVIEKKLAIWEQLSPDIKQQYGEGYIEKSLDKLKGNKSYVNMDLSPVVECMDHALTSLFPKTHYAAGKDAKIFWIPLSHMPAALQDFLLLKQKAELANPKAV
notes: recombinant, baculovirus-infected Sf9 cell microsomes
On to B1, for which the Km in data set [1] stood at 0.46 ± 0.19 µM; in data set [2], 4.6 ± 2.7 µM; in data set [3], 1.6 ± 0.5 µM; in [4], 0.76 ± 0.44 µM; in [5] it was 0.36 ± 0.18 µM; in [6], 0.43 ± 0.16 µM. Moreover, in data set [7], the Km was determined as 0.57 ± 0.25 µM. For the same protein, the Vmax was determined as 0.00011 µmol/min in data set [1]; 0.00023 µmol/min in data set [2]; 8.5e-05 µmol/min in [3]; 0.00017 µmol/min in [4]; 0.00014 µmol/min in data set [5]; 0.00022 µmol/min in data set [6]. Further, the Vmax in data set [7] was found to be 2.4e-05 µmol/min.

B2: human RDH16 (SDR9C8) (Homo sapiens) (protein)
chain: MWLYLAVFVGLYYLLHWYRERQVLSHLRDKYVFITGCDSGFGKLLARQLDARGLRVLAACLTEKGAEQLRGQTSDRLETVTLDVTKTESVAAAAQWVKECVRDKGLWGLVNNAGISLPTAPNELLTKQDFVTILDVNLLGVIDVTLSLLPLVRRARGRVVNVSSVMGRVSLFGGGYCISKYGVEAFSDSLRRELSYFGVKVAMIEPGYFKTAVTSKERFLKSFLEIWDRSSPEVKEAYGEKFVADYKKSAEQMEQKCTQDLSLVTNCMEHALIACHPRTRYSAGWDAKLLYLPMSYMPTFLVDAIMYWVSPSPAKAL
notes: as for B1
Take B2: the Km in data set [8] is 0.83 ± 0.36 µM; in [9], 1.39 ± 0.56 µM; in data set [10] it was 2.01 ± 0.64 µM; in data set [11] it was 1.76 ± 0.59 µM. Further, the Vmax in data set [8] turned out to be 7.7e-06 µmol/min; in data set [9], 2.04e-05 µmol/min; in data set [10], 2.15e-06 µmol/min; in [11], 1.67e-05 µmol/min.

B3: human HSD17B6 (SDR9C6) (Homo sapiens) (protein)
chain: YRERQVVSHLQDKYVFITGCDSGFGNLLARQLDARGLRVLAACLTEKGAEQLRGQTSDRLETVTLDVTKMESIAAATQWVKEHVGDRGLWGLVNNAGILTPITLCEWLNTEDSMNMLKVNLIGVIQVTLSMLPLVRRARGRIVNVSSILGRVAFFVGGYCVSKYGVEAFSDILRREIQHFGVKISIVEPGYFRTGMTNMTQSLERMKQSWKEAPKHIKETYGQQYFDALYNIMKEGLLNCSTNLNLVTDCMEHALTSVHPRTRYSAGWDAKFFFIPLSYLPTSLADYILTRSWPKPAQAV
notes: as for B1
Regarding B3, the Km in data set [12] was 0.33 ± 0.24 µM; in data set [13] it was 1.78 ± 0.42 µM; in data set [14], 0.87 ± 0.35 µM; in [15] it was 0.64 ± 0.28 µM. Further, the Vmax came out at 9e-07 µmol/min in [12], 2.88e-06 µmol/min in data set [13], 7.96e-06 µmol/min in data set [14] and 4e-07 µmol/min in data set [15].

One may read the Km as the substrate concentration at which the rate is half of its maximum. In general, Vmax refers to the top rate of the reaction or transport when substrate is in excess.

The values are drawn from paper PMC8761697, “Dehydrogenase reductase 9 (SDR9C4) and related homologs recognize a broad spectrum of lipid mediator oxylipins as substrates” (The Journal of Biological Chemistry, 2021).
